The values below come from patent publication US20110052565A1 (NATIONAL RESEARCH COUNCIL OF CANADA, published 2011).

First the molecules themselves.
T1: porcine pancreatic α-amylase (porcine, UniProt P00690 16-511)
T1 construct: Bought (Sigma); The source is named only for the ELISA with soluble VHs; the panning and phage ELISA paragraphs say only α-amylase; also called a-amylase
T1 sequence (looked up): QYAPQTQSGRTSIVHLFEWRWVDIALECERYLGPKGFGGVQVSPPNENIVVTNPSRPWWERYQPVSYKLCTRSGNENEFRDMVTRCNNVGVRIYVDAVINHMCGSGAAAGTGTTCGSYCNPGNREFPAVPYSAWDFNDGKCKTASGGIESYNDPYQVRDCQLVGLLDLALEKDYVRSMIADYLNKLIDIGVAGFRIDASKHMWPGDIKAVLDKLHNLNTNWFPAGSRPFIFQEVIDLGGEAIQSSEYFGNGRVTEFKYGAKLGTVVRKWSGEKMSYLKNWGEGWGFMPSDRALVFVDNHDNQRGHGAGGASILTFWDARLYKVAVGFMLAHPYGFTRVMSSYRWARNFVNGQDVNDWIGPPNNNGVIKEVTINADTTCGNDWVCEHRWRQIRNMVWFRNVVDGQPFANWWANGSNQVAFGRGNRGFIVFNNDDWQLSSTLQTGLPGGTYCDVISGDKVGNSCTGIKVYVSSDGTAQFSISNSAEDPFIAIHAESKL

B1: huVHAm302 (other)
VH: QVQLVESGGGLIKPGGSLRLSCAASGDTVSDESMTWVRQAPGKGLEWVSAISSSGGSTYYADSVKGRFTISRDNSKNTVYLQMNSLRAEDTAVYYCVTDNRSCQTSLCTSTTRSWGQGTMVTVSSGSEQKLSEEDLNHHHHHH
modifications: N-terminus pyroglutamine (pyroQ)
notes: Human VH single-domain antibody, soluble with c-Myc-His6 tag, amber codon at position 32 replaced by Glu; In the phage ELISA rows the same VH stood on phage (pIII fusion)
B2: huVHAm428 (other)
VH: QVQLVESGGGLIKPGGSLRLSCAASGFSLSDDCMGWVRQAPGKGLEWVSAISSSGGSTYYADSVKGRFTISRDNSKNTVYLQMNSLRAEDTAVYYCVTGNQACKHEPWPDEALLLGPRDNVTVSS
notes: Human VH single-domain antibody, soluble, amber codon replaced by Glu; In the phage ELISA rows the same VH stood on phage (pIII fusion); not shown: C-terminal c-Myc-His6 tag from vector pSJF2H
B3: huVHAm416 (other)
VH: QVQLVESGGGLIKPGGSLRLSCAASGVSFTDDCMAWVRQAPGKGLEWVSAISSSGGSTYYADSVKGRFTISRDNSKNTVYLQMNSLRAEDTAVYYCVADHTQCRQPECESQLCSWGQGTMVTVSS
notes: as for B2
B4: huVHAm309 (other)
VH: QVQLVESGGGLIKPGGSLRLSCAASGVNFSNEGMAWVRQAPGKGLEWVSAISSSGGSTYYADSVKGRFTISRDNSKNTVYLQMNSLRAEDTAVYYCVTAQRACANSPCPGSITSWGQETMVTVSS
notes: as for B2
B5: huVHAm304 (other)
VH: VQLVESGGGLIEPGGSLRLSCAASGFSFSDEGMAWVRQAPGKGLEWVSAISSSGGSTYYADSVKGRFTISRDNSKNTVYLQMNSLRAEDTAVYYCVRLPKQCTSPDCETEVSSWGQRTMVTVSS
notes: Human VH single-domain antibody, soluble, amber codons replaced by Glu; In the phage ELISA rows the same VH stood on phage (pIII fusion); not shown: C-terminal c-Myc-His6 tag from vector pSJF2H
B6: huVHAm301 (other, not shown: small tags and cut ends)
VH: QVQLVESGGGLIKPGGSLRLPCAASGFRISHEGMGWVRQAPGKGLEWVSAISSSGGSTYYADSVKGRFTISRDNSKNTAYLQMNSLRAEDTAVYYCVAYNEECTKPSCHTKARSWGQGTMVTVSS
notes: amber codon read as Glu in E. coli TG1
B7: huVHAm316 (other)
VH: QVQLVESGGGLIKPGGSLRLSCAASGDRFTYESMGWVRQAPGKGLEWVSAISSSGGSTYYADSVKGRFTISRDNSKNTVYLQMNSLRAEDTAVYYCVALETACTRPACAHTPRFWGQGTMVTVSS
notes: as for B2
B8: huVHAm305 (other, not shown: small tags and cut ends)
VH: QVQLVESGGGLIKPGGSLRLSCAASGYRFNNEVMGWVRQAPGKGLEWVSAISSSGGSTYYADSVKGRFTISRDNSKNTVYLQMNSLRAEDTAVYYCVTSTPACNQDKCERWRPSWGQGTMVTASS
notes: as for B6
B9: huVHAm311 (other, not shown: small tags and cut ends)
VH: QVQLVESGGGLIKPGGSLRLSCAASGFRVTPECMTWVRQAPGKGLEWVSAISSSGGSTYYADSVKGRFTISRDNSKNTVYLQMNSLRAEDTAVYYCVRHEVECPTEQCPFHCPSWGQGTMVTVSS
notes: as for B6
B10: huVHAm315 (other)
VH: QVQLVESGGGLIKPGGSLRLSCAASGDMFSSEGMAWVRQAPGKGLEWVSAISSSGGSTYYADSVKGRFTISRDNSKNTVYLQMNSLRAEDTAVYYCVAAPTTCTSHNCAEPFRSWGQETMVTVSS
notes: as for B2
B11: huVHAm303 (other, not shown: small tags and cut ends)
VH: QVQLVESGGGLIKPGGSLRLSCAASGFRFSYEVMGWVRQAPGKGLEWVSAISSSGGSTYYADSVKGRFTISRDNSKNTVYLQMNSLRAEDTAVYYCVTPKVDCETHPCRERPYFWGQGTMVTVSS
notes: as for B6
B12: huVHAm431 (other)
VH: QVQLVESGGGLIKPGGSLRLSCAASGYTVSSECMGWVRQAPGKGLEWVSAISSSGGSTYYADSVKGRFTISRDNSKNTVYLQMNSLRAEDTAVYYCVRDSKNCHDKDCTRPYCSWGQGTMVTVSS
notes: Human VH single-domain antibody, soluble; In the phage ELISA rows the same VH stood on phage (pIII fusion); not shown: C-terminal c-Myc-His6 tag from vector pSJF2H
B13: huVHAm427 (other)
VH: QVQLVESGGGLIKPGGSLRLSCAASGVTLSPECMAWVRQAPGKGLEWVSAISSSGGSTYYADSVKGRFTISRDNSKNTVYLQMNSLRAEDTAVYYCVSCEGENAFWGQGTMVTASS
notes: as for B2
B14: huVHAm406 (other, not shown: small tags and cut ends)
VH: QVQLVESGGGLIKPGGSLRLSCAASGFSFTPECMGWVRQAPGKGLEWVSAISSSGGSTYYADSVKGRFTISRDNSKNTVYLQMNSLRAEDTAVYYCVGHKNNCPGQGTMVTVSS
notes: as for B6
B15: huVHAm420 (other, not shown: small tags and cut ends)
VH: QVQLVESGGGLIKPGGSLRLSCAASGDRFSYEDMAWVPQAPGKGLEWVSAISSSGGSTYYADSVKGRFTISRDNSKNTVYLQMNSLRAEDTAVYYCVATEESCPEGNCPPPRRSWGQETMVTVSS
notes: as for B6
B16: huVHAm430 (other, not shown: small tags and cut ends)
VH: QVQLVESGGGLIKPGGSLRLSCAASGDRVSPEDMAWVRQAPGKGLEWVSAISSSGGSTYYADSVKGRFTISRDNSKNTVYLQMNSLRAEDTAVYYCVTSGVPSGSFWGQETMVTVSS
notes: as for B6
B17: huVHAm412 (other, not shown: small tags and cut ends)
VH: QVQLVESGGGLIKPGGSLRLSCAASGDMLSAECMGWVRQAPGKGLEWVSAISSSGGSTYYADSVKGRFTISRDNSKNTVYLQMNSLRAEDTAVYYCVAKPYHCAVQGTMVTVSS
notes: as for B6

T2 sequence (P02769 25-607 limits assumed): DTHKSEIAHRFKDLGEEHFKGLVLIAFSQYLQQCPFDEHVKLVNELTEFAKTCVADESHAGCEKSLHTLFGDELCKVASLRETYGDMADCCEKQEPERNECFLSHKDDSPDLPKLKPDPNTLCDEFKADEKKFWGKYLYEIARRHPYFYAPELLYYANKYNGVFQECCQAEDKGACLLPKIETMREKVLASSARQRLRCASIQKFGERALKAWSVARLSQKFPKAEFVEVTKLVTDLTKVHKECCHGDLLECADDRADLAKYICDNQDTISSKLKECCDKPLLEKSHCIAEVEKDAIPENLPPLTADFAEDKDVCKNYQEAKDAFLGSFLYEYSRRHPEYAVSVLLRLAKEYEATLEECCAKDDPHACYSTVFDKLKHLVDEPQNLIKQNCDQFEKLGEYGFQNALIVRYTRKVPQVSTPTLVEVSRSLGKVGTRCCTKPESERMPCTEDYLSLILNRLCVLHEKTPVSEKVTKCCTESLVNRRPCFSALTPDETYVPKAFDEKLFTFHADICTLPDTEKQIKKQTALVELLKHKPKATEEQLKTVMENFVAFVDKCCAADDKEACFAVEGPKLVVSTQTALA

The target of the first assay is T1, porcine pancreatic α-amylase. The assay is described as follows: told in the legend of the α-amylase inhibition figure (FIG. 10).
Experimental: Briefly, the enzyme at a final concentration of 1.5 μg/mL in 0.1% casein, 150 mM NaCl, 2 mM CaCl₂, 50 mM Tris-HCl pH 7.4 was preincubated with various concentrations of purified monomeric anti-α-amylase VHs at room temperature for 1 h (total volume: 50 μL). The mixture was split in two ELISA wells and to each well 75 μL of substrate solution (0.2 mM 2-chloro-4-nitrophenyl maltotrioside, 150 mM NaCl, 2 mM CaCl₂, 50 mM Tris-HCl pH 7.4) was added. […] The progress of reactions was monitored continuously at 25° C. by measuring the change in absorbance of reaction solutions at 405 nm (ΔA405 nm) using a PowerWave 340 microplate spectrophotometer (BioTek Instruments, Inc. Winooski, Vt.). […] The VHs was thus analyzed by ELISA.
For B1, the binding result is “binds”.

A further assay concerns the target T2, bovine serum albumin (bovine, UniProt P02769 25-607).
T2 construct: also called BSA
As to the kind of experiment: ELISA, immobilized BSA, His6-tagged VH detected with anti-His-IgG/HRP (FIG. 9A).
Take B2: the binding result is “no binding”.

As to B3, the binding result was “no binding”.

Consider B4, for which the binding result is given as “no binding”.

On to B5, for which the binding result is on record as “no binding”.

The target of another assay is T1, porcine pancreatic α-amylase. As to the kind of experiment: ELISA, immobilized porcine pancreatic α-amylase, His6-tagged VH, anti-His-IgG/HRP. The method, then: To assess binding of VHs to a-amylase by ELISA, Maxisorp™ microtiter plates (Nunc) were coated with 100 μL of 10 μg/mL porcine pancreatic α-amylase (Sigma, Oakville, ON, Canada) in PBS overnight at 4° C. After blocking with 3% bovine serum albumin (300 μL) for 2 h at 37° C. and subsequent removal of blocking agent, 100 μL His₆-tagged VHs at concentrations of a few μM were added, followed by incubation for 2 h at 37° C. Wells were washed 5× with PBST and 100 μL rabbit anti-His-IgG/horse radish peroxidase (HRP) conjugate (Bethyl Laboratories, Inc., Montgomery, Tex.) was added at a dilution of 1:5000. The wells were then incubated for 1 h at 37° C. After washing the wells with PBST, 100 μL […] substrate (KPL, Gaithersburg, Md.) was added and the reaction, seen as color development, was stopped after 5 min by adding 100 μL of 1 M phosphoric acid. Absorbance values were measured at a wavelength of 450 nm using a microtiter plate reader. […] Assays were performed in duplicates.
For B2, the binding result is listed as “binds”.

On to B3, for which the binding result is listed as “binds”.

B4: the binding result was “binds”.

Another assay shares this target. As to the kind of experiment: phage ELISA, round 3 of heat denaturation panning; VH displayed on phage; member by Table 2, column R3. The method, then: For selection by heat denaturation, input phage in a multivalent display format was used (i.e., the phages were produced by using hyperphage for superinfection). The input phage was heated at 80° C. for 10 min, cooled at 4° C. for 20 min, centrifuged at maximum speed for 2 min in a microfuge and the supernatant was added to antigen-coated wells for binding. Three rounds of panning against α-amylase by the heat denaturation method were performed. A non-treatment panning was also carried out in parallel as control. […] Monoclonal Phage ELISA on single colonies was performed (Arbabi-Ghahroudi et al., 2009). ELISA-positive clones were subjected to DNA sequencing to identify their VHs (Arbabi-Ghahroudi et al., 2009). Isoelectric points, pIs, of the VHs were determined using the software Laser gene v6.0 (DNASTAR, Inc., Madison, Wis.).
Background: In an ELISA, binding on a coated surface is turned into a signal by an enzyme label.
Turning to B6, the binding result was “binds”.

For the molecule B7, the binding result is listed as “binds”.

Regarding B8, the binding result is “binds”.

On to B9, for which the binding result was “binds”.

Turning to B10, the binding result is “binds”.

With B11, the binding result is listed as “binds”.

For the next assay the target is unchanged. As to the kind of experiment: phage ELISA, round 4 of heat denaturation panning; VH displayed on phage; member by Table 2, column R4.
For the molecule B12, the binding result is recorded as “binds”.

As to B13, the binding result is recorded as “binds”.

As for B14, the binding result is “binds”.

With B15, the binding result was “binds”.

For the molecule B16, the binding result was “binds”.

Turning to B17, the binding result is reported as “binds”.

The next assay deals with T3, protein A (UniProt P38507 37-477).
T3 construct: Immobilized unconjugated on a CM5 chip in SPR; used as HRP conjugate in the ELISA; also called protein A/HRP conjugate; horseradish peroxidase-protein A conjugate
As to the kind of experiment: SPR (Biacore 3000), protein A immobilized; KD of native VH over KD of heat-denatured/cooled VH, unfolded at 5 µM. As for the experimental part:
(§1) Immobilizations were carried out at a protein concentration of 50 μg/mL in 10 mM acetate buffer pH 4.5 using amine coupling kit supplied by the manufacturer. AD VHs were passed though Superdex™ 75 column (GE Healthcare) and the monomeric species were collected for refolding efficiency experiments. To obtain refolding efficiency values, VHs were incubated at 85° C. for 20 min at the concentration of 0.5 and 5 μM and were cooled to room temperature for 30 min. The VHs were centrifuged at 16,000 g in a microfuge for 5 min at 22° C. to pellet and remove any possible aggregates. […] The surfaces were washed thoroughly with the running buffer for regeneration. Refolding efficiencies were calculated from the amounts bound at steady state. Data were analyzed with BIAevaluation 4.1 software.
(In general: SPR reads the build-up and loss of mass on a sensor chip optically.)
On to B2, for which the “TRE (%) (ratio of KDn to KDref)” value was found to be 86%.

On to B3, for which the “TRE (%) (ratio of KDn to KDref)” value is 97%.

Consider B4, for which the “TRE (%) (ratio of KDn to KDref)” value turned out to be 93%.

For the molecule B5, the “TRE (%) (ratio of KDn to KDref)” value stood at 87%.

A further assay deals with T3, protein A. As to the kind of experiment: SPR (Biacore 3000), protein A immobilized; KD of native VH over KD of heat-denatured/cooled VH, unfolded at 0.5 µM. As for the experimental part: as §1
Turning to B2, the “TRE (%) (ratio of KDn to KDref)” value worked out at 89%.

Consider B3, for which the “TRE (%) (ratio of KDn to KDref)” value stood at 100%.

On to B4, for which the “TRE (%) (ratio of KDn to KDref)” value is 94%.

In the case of B5, the “TRE (%) (ratio of KDn to KDref)” value stood at 99%.
